{"source": "the nanobody polyreactivity screen of Harvey et al. (2022)", "data": [{"experiment": "yeast display, Sf9 membrane polyspecificity reagent, FACS + sequencing; frameworks hold sequencing errors", "method_in_brief": "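Genes from sorted yeast were amplified by colony PCR, read by MiSeq 2 × 250 sequencing and filtered on CDR length. These cells carried a synthetic nanobody library in Saccharomyces cerevisiae BJ5465 and were sorted by FACS into low and high (top ~1%) gates on anti-HA and streptavidin fluorescence. Polyreactivity is labelled according to the gate of origin.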", "values": [{"sequence": "QVQLVESGGGLVQAAGSLRLSCAASGLTFRVNDMGWYRQAPGKERELVATISSGGSTYYADSVKGRFTISRDNAKNTVYLQMNSLKAVDTAVYYCATNSEGQESNSYYVWMGYWGQGTKVTVSS", "polyreactivity (PSR sort gate)": "low polyreactivity"}, {"sequence": "QVQLVESGGGLVQAAGSLRLSCAASGRTFRAYAMGWYRQAPGKERELVAAISNRGTRTYYADSVKGRFTISRDNAKNTVYLQMNSLKPEDTAVYYCAAGNRVNRFDYWGQGTQVTVSS", "polyreactivity (PSR sort gate)": "high polyreactivity"}, {"sequence": "QVQLVESGGGLVQAAGSLRLSCAASGSIFLSYAMGWYRQAPGKERELVAAITTDGGTNYADSVKGRFTISRDNAKNTVYLQMNSLKPEDSAVYYCAADSDPIPLIDYTLPMDYWGQGTQVTVSS", "polyreactivity (PSR sort gate)": "low polyreactivity"}, {"sequence": "QVQLVESGGGLVQAAGSLRLTCAASGRTFYDNVKGWYRQAPGKERELVAAISSGGSTNYADSVKGRFTISRDNAKNTVYLQMNSLKPEDTAVYYCATTGGGGWAYEYWGQGTQVTVSS", "polyreactivity (PSR sort gate)": "low polyreactivity"}, {"sequence": "QVQLVESGGGLVQAARSLRLSCAASGRIFNYYAMGWYRLAPGKERELVAAINSGGSTYADSVKGRFTISRDNAKNTVYLPMNSLKPEDTAVYYCAKDGQLQSGRERPSGYDHWGQGTQVTVSS", "polyreactivity (PSR sort gate)": "low polyreactivity"}, {"sequence": "QVQLVESGGGLVQAGARLRLSCAASGSILPTNAMGWYRQAPGKERELVASITYNGGRTSYADSVKWRFTISRDNAKNTVYLQMNSLKPEDTAVYYCAARVWYQGYKSMGYWGQGTQVPVSS", "polyreactivity (PSR sort gate)": "high polyreactivity"}, {"sequence": "QVQLVESGGGLVQAGASLRISCAASGRIFGRNAMGWYRQEPGIEREFVARIRTSGGSTYNADSVKGRFTISRDNAKNTVYLQMNSLKPEDTAVYYCAAAVYTSARGYDYWGQGTQVTLSS", "polyreactivity (PSR sort gate)": "high polyreactivity"}, {"sequence": "QVQLVESGGGLVQAGASLRLICAASGYTSSGYAMGRYRHAPGKERELVAAISADGGSTYYADSVKGRFTISRDNAKNTVYLQMNSLKPEDTAVYYCAKYTYPYTPYSWWYDYWGQGTQVTVSS", "polyreactivity (PSR sort gate)": "low polyreactivity"}, {"sequence": "QVQLVESGGGLVQAGASLRLSCAASGFIFNQYAMGWYRQAPGKERELVAGITWRGGRTYYADSVKGRFTISRDNAKNTVYLQMNSLKPEDTAVYYCAADVAHYNGGEYYYWGQGTQVTVSS", "polyreactivity (PSR sort gate)": "high polyreactivity"}, {"sequence": "QVQLVESGGGLVQAGASLRLSCAASGGIFDLYAMGWYRQAPGKERELVAAITRSGSSTFYADSVKGRFTISRDNAKNTVYLQMNSLKPEDSAVYYCNARYCWYGTYGGDYWGQGTQVTVSS", "polyreactivity (PSR sort gate)": "low polyreactivity"}, {"sequence": "QVQLVESGGGLVQAGASLRLSCAASGIIFYANAMGWYRQAPGTERELVAAITFSGGSTYYADSVKGRFTISRDNAKNTVYLQMNSLKPEDTAVYYCAADKRFIPPHPHPLEFDYWGQGTQVTVSS", "polyreactivity (PSR sort gate)": "low polyreactivity"}, {"sequence": "QVQLVESGGGLVQAGASLRLSCAASGITLYLYDMGWYRQAPGKERELVASITSDGSTDYADSVKGRFTISRDNAKNTVFLQMNSLKPEDTAVYYCIARVTYSWYRFGRSGDDSWGQGSQVTVSS", "polyreactivity (PSR sort gate)": "low polyreactivity"}, {"sequence": "QVQLVESGGGLVQAGASLRLSCAASGRIFHHNVMGWYIQAPGKERELVAAISQSGGSTYYADSVKGRFTISRDNAKNTVYLQMNSLKPEDTAVYYCNDGAAGRRYNYWGQGTQVTVSS", "polyreactivity (PSR sort gate)": "low polyreactivity"}, {"sequence": "QVQLVESGGGLVQAGASLRLSCAASGRTFTQYAMGWYRQAPGKERELVAAISRSGGTTYYADSVKGRFTISRENAKNTVYLQMNSLKPEDTAVYYCAARWWYRYNYDYWGQGTQVTVSS", "polyreactivity (PSR sort gate)": "high polyreactivity"}, {"sequence": "QVQLVESGGGLVQAGASLRLSCAASGRTFYQNGMGWYRQAPGKERELVAVISSGGNTDYADSVKGRFTMSRDNAKNTVYLQMNSLKPEDTAVYYCNADVRPAYTYDYWGQGTQVTVSS", "polyreactivity (PSR sort gate)": "low polyreactivity"}, {"sequence": "QVQLVESGGGLVQAGASLRLSCAASGSIFDPYAMGWYRQAPGKERQLVAAITYSVGGTTYYADSVKGRFTISRDNAKNTVYLQMNSLKPEDTAVYYCAAEWWGTPFDYWGQGTQVTVSS", "polyreactivity (PSR sort gate)": "high polyreactivity"}, {"sequence": "QVQLVESGGGLVQAGASLRLSCAASGSISKSYAMGWYRQAPGKERELVAAISSRGGSTYADSVKGRFTISRDNAKNTVYLQMNSLKPEDTAVYYCAATNYGTFWGGQSERYDYWGQGTQVTVSS", "polyreactivity (PSR sort gate)": "low polyreactivity"}, {"sequence": "QVQLVESGGGLVQAGASLRLSCAASGSNFWFYAMGWYRQAPGKERELVAVISNSGSTYYADSVKGRFTFSRDNAQNTVYLQMNSLKAEDTAVYYCNKDGGGDSYWYDYWGQGTQVTVSS", "polyreactivity (PSR sort gate)": "low polyreactivity"}, {"sequence": "QVQLVESGGGLVQAGASLRLSCAASGSTFYIYAMGWYRQAPGKERELVAGISSGSTYYADSVKGRFTISRDNAKNTVYLQMNSLKPEVTAVYYCAVDSYYFLKDPISYGLYYYWGQGTQVTVSS", "polyreactivity (PSR sort gate)": "low polyreactivity"}, {"sequence": "QVQLVESGGGLVQAGASLRLSCAASGSTQGWYAMGRYRQAPGKERELVAAISWSGSSTYYADSVKGRFTISRDTAKNTVYLQMNSLKPEDTAVYYCATTSSEVGELRICDYWGQGTQVTVSS", "polyreactivity (PSR sort gate)": "low polyreactivity"}, {"sequence": "QVQLVESGGGLVQAGASLRLSCAGSGLIFTTYAMGWYRQAAGKERELVADINSDGSTYYADSVKGRFTISRDNAKNTVYLQMNSLKPEDTAVYYCAKDYVHQYGVYKVWANNYNYWGQGTQVTVSS", "polyreactivity (PSR sort gate)": "low polyreactivity"}, {"sequence": "QVQLVESGGGLVQAGASLRLSCAPSGRIFGPNTMGWSRQAPGKEREVVAAITRRGGSTYYADSVKGRFTISRDNAKNTVYLQMNSLKPEDTAVYYCAAVGQKRSLGFSWGQGTQVTVSS", "polyreactivity (PSR sort gate)": "low polyreactivity"}, {"sequence": "QVQLVESGGGLVQAGASLRLSRAASGLIFYRYAMGLYRPAPGKERELVAAITSGGSTYYADSVKGRFTISRDNAKNTVYLQMNSLKPEDTAVYYCAAFYVPTYYYSPYGYWGQGTQVTVSS", "polyreactivity (PSR sort gate)": "high polyreactivity"}, {"sequence": "QVQLVESGGGLVQAGCILRLSCAASGRIFNYYTMGWYRQAPGKEMELVAAITRTGGNTYYADSVKGRFTISRDNAKNTVYLKMNSLEPEDTAVYDCNVVWLNQREYYYWGQGTHVTVSS", "polyreactivity (PSR sort gate)": "high polyreactivity"}, {"sequence": "QVQLVESGGGLVQAGCRLRLSCAASGRTSPRYTMGWYRQAHGKERELVASITVSDGSTYYADSVKGRFTISRDNAKNTVYLQMNSLKPEDTAVYYCARPGYWYRYISTSKLHYYWGQGTQETVSS", "polyreactivity (PSR sort gate)": "low polyreactivity"}, {"sequence": "QVQLVESGGGLVQAGCSHSLSCAASGSIFWNNAIGSFRQAPVKEREFVAGITGRGGSTYYADSVKGRFTISRDNAKNTVYLQMNSLKPEDTEVYYCATRYLVYRGKYDYWGQGTQVTVSS", "polyreactivity (PSR sort gate)": "high polyreactivity"}, {"sequence": "QVQLVESGGGLVQAGCSLRLRSAASGSIFSGYAMGWYRQAPWKERELDAVISSTGDSTYYADSVKGRFTISRDYAKNTVYLQMNSLKPEDTAVYYCAAYHGPWKWTTRYGYWGQGTQVTVSS", "polyreactivity (PSR sort gate)": "low polyreactivity"}, {"sequence": "QVQLVESGGGLVQAGCSLRLSCAASGFIFDDYDMGWYRQAPGKERELVAAISWSGGSTYYADSVKGRFTISRDNAKNTVYLQMNSLKPEDTAVFYCNADYYRSRYDYWGQGTQVTVSS", "polyreactivity (PSR sort gate)": "high polyreactivity"}, {"sequence": "QVQLVESGGGLVQAGCSLRLSCAASGGTFYANAKGRYRQAPGIVRELVAAITSGGSTNYADSVKGRFTISRDNAKNTVYLEINSLKPEDTAVYYCNASAQRRYWHSYFRRYDYWGQGTQVTVSS", "polyreactivity (PSR sort gate)": "low polyreactivity"}, {"sequence": "QVQLVESGGGLVQAGCSLRLSCAASGITFYGNAMGSYRQAPGKERELVAAISRRGGSTYYADSVKGRFTSSRDNAKNSVYLQMISLKPEDTAVYYCAARYYSWSFRFDYWGQGTQLTVSS", "polyreactivity (PSR sort gate)": "high polyreactivity"}, {"sequence": "QVQLVESGGGLVQAGCSLRLSCAASGRIFGTNDMGWYRQAPGKERELVAAINGSDSSTYYADSVKGRFTISRDNAKNTVYFQMNSLKPEDTAVYYCNADWSGAPERSTDGYDYWGQGTQVTVSS", "polyreactivity (PSR sort gate)": "low polyreactivity"}, {"sequence": "QVQLVESGGGLVQAGCSLRLSCAASGRIFLVNAMGWYRQAPGKERELVAAISYRSGRTYYADSVKGRFTISRDNAKNTVYLQMNSLKPEDTAVYYCAAYTNVADMEYWGQGTQVTVSS", "polyreactivity (PSR sort gate)": "high polyreactivity"}, {"sequence": "QVQLVESGGGLVQAGCSLRLSCAASGRIFNDYAMGWYRQAPGKERELVAGISRRGGSTSYADSVKGRFTISRDNAKNTDYLQMNSQKAEDTAVYYCNADYWYDYYSTEYDYWGQGTQVTVSS", "polyreactivity (PSR sort gate)": "low polyreactivity"}, {"sequence": "QVQLVESGGGLVQAGCSLRLSCAASGRIFWVNAMGWYRQAPGKERELVAVISSGGSTHYADSVKGRFTISRDNAKYTVSLQMNSLKPEDTAGYYCAADRYYVGYYYWGQGTQVTVSS", "polyreactivity (PSR sort gate)": "low polyreactivity"}, {"sequence": "QVQLVESGGGLVQAGCSLRLSCAASGRIFYLYTLGWYRQAPGKERELVAAITRAGRTYYADSVKGRFTISRDNAKNTFYLQMNSLKPEDTGVYYCAAAFLSRVQGYDSWGQGTQVTVSS", "polyreactivity (PSR sort gate)": "high polyreactivity"}, {"sequence": "QVQLVESGGGLVQAGCSLRLSCAASGRTFCYNSMGLYRQAPGKERELVAAISTSGGSTYYADSVKGRFTISRDNAKNTVYLQMNSLKPEDSAVYSCAADSHRSFSLYAYDSWGLGTQVTVSS", "polyreactivity (PSR sort gate)": "low polyreactivity"}, {"sequence": "QVQLVESGGGLVQAGCSLRLSCAASGRTFGSYAMGWYRQAPGKERDLVAGITWRDGSTYYADSVKGRFTISRDNAKNTVYFQMNSLKPEDTAVYYCDKEAVRYYLFGMEYWGQGNQVTVSS", "polyreactivity (PSR sort gate)": "low polyreactivity"}, {"sequence": "QVQLVESGGGLVQAGCSLRLSCAASGRTFSSYAMGWYRQSPGKERELVAAINRGGGSTYYADSVKGRFTISRDNAKNTVYLQMNSLKPEDTAVYYCNARSKRTYEYDYWGQGTQVTVSS", "polyreactivity (PSR sort gate)": "high polyreactivity"}, {"sequence": "QVQLVESGGGLVQAGCSLRLSCAASGRTFYPYAMGWYRQAPRKERELVAAINWSGTSTYYADSVKGRFTISRDNAKNTVYLQMNSLKTEDTAVYYCAAKQYPVLHYSLTEADMDYWGQGTQVTVSS", "polyreactivity (PSR sort gate)": "low polyreactivity"}, {"sequence": "QVQLVESGGGLVQAGCSLRLSCAASGRTFYTVYARGWYRQAPGKERELVAAITKDGTTTYYADSVKGRFTISRDNAKNTVYIEMNSLKQEDTAVYYCNADVSQPWGGGEYNYWGQGTQVTVSS", "polyreactivity (PSR sort gate)": "high polyreactivity"}]}]}
